Results published in patent publication US20230279131A1.
Read-outs that look alike come from different tables or passages of the source.

How the values were obtained:
[1] = target: T1, mouse IL-2Rγ expressed on cells (MC/9) (mouse) (UniProt P34902); test: flow cytometry on MC/9 cells (endogenous mouse IL-2Rg), isotype control 10 ug/ml
T1 sequence (looked up): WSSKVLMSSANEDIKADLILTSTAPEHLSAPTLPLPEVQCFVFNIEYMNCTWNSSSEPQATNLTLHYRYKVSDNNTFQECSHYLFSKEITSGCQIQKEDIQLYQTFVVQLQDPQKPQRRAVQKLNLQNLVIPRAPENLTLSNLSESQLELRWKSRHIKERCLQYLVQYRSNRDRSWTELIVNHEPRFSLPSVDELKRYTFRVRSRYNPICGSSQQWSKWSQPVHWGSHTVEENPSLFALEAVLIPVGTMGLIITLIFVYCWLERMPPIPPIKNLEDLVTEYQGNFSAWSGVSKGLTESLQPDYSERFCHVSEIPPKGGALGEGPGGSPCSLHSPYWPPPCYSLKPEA

[2] = target: T2, human IL-2Rγ expressed on cells (NK-92, Jurkat) (human) (UniProt P31785); test: flow cytometry on NK-92 cells (endogenous human IL-2Rg), isotype control 10 ug/ml
T2 sequence (looked up): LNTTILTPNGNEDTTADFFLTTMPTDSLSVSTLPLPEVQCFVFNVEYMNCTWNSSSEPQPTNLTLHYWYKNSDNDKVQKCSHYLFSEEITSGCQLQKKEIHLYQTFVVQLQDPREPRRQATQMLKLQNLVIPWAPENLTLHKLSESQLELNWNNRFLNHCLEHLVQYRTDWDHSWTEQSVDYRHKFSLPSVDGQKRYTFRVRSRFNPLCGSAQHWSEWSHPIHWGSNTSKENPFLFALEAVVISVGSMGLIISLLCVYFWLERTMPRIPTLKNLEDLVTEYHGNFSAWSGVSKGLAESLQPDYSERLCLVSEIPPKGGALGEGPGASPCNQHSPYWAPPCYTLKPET

[3] = target: T2, human IL-2Rγ expressed on cells (NK-92, Jurkat) (human); test: as above; remark: listed apart in the source
[4] = target: T2, human IL-2Rγ expressed on cells (NK-92, Jurkat) (human); test: flow cytometry on Jurkat cells (endogenous human IL-2Rg), isotype control 10 ug/ml
[5] = target: human IL-2Rγ expressed on cells (human) (UniProt P31785); test: flow cytometry, isotype control at 10 µg/ml; high end of the range (NK-92 by Table 9-1)
[6] = target: human IL-2Rγ expressed on cells (human) (UniProt P31785); test: flow cytometry, isotype control at 10 µg/ml; low end of the range (Jurkat by Table 9-1)
[7] = target: human IL-2Rγ expressed on cells (human) (UniProt P31785); test: flow cytometry on NK-92 cells, isotype control at 10 µg/ml; the end of the range that Table 9-2 ties to NK-92
[8] = target: T3, human IL2Rγ expressed on cells (human) (UniProt P31785); test: cell-based or functional assay
T3 sequence (looked up): T2 sequence (looked up)

[9] = target: T3, human IL2Rγ expressed on cells (human); test: cell-based or functional assay; remark: listed apart in the source
[10] = target: T1, mouse IL-2Rγ expressed on cells (MC/9) (mouse); test: flow cytometry on MC/9 cells (endogenous mouse IL-2Rg), secondary antibody alone
[11] = target: T2, human IL-2Rγ expressed on cells (NK-92, Jurkat) (human); test: flow cytometry on NK-92 cells (endogenous human IL-2Rg), secondary antibody alone
[12] = target: T2, human IL-2Rγ expressed on cells (NK-92, Jurkat) (human); test: flow cytometry on Jurkat cells (endogenous human IL-2Rg), secondary antibody alone

Substance: REGN1945 (antibody)
- Binding Ratio (Sample over unstained MFIs) [1]: 1
- Binding Ratio (Sample over unstained MFIs) [2]: 13
- Binding Ratio (Sample over unstained MFIs) [3]: 1
- Binding Ratio (Sample over unstained MFIs) [4]: 1
- binding ratio (sample MFI over unstained MFI) [5]: 13
- binding ratio (sample MFI over unstained MFI) [6]: 1
- binding ratio (sample MFI over unstained MFI) [7]: 1

Substance: human IL-21 (from UniProt Q9HBE4 30-162) (ligand)
- EC50 [M] of ligand; NK92/hIL7R/STAT3-luc [8]: 3.1e-12 M
- EC50 [M] of ligand; NK92/hIL7R/STAT3-luc [9]: 6e-12 M

Substance: anti-human antibody conjugated to allophycocyanin (APC) (Jackson ImmunoResearch, #109-136-170)
- Binding Ratio (Sample over unstained MFIs) [10]: 1
- Binding Ratio (Sample over unstained MFIs) [11]: 1
- Binding Ratio (Sample over unstained MFIs) [12]: 1

Substance: human IL-15 (from UniProt P40933 49-162) (ligand)
- EC50 [M] of ligand; NK92/hIL7R/STAT3-luc [8]: 1.5e-10 M
- EC50 [M] of ligand; NK92/hIL7R/STAT3-luc [9]: 2.3e-10 M

Substance: human IL-2 (from UniProt P60568 21-153) (ligand)
- EC50 [M] of ligand; NK92/hIL7R/STAT3-luc [8]: 3.3e-11 M
- EC50 [M] of ligand; NK92/hIL7R/STAT3-luc [9]: 4.5e-11 M

Substance: human IL-9 (from UniProt P15248 19-144) (ligand)
- EC50 [M] of ligand; NK92/hIL7R/STAT3-luc [8]: 2e-11 M
- EC50 [M] of ligand; NK92/hIL7R/STAT3-luc [9]: 3.3e-11 M
